The PETadex activity labels

B1: unnamed (protein)
chain: MRPSSSSLHTAVPLRPCSRAMTALIALATTIGLALALLTAAAPPAAAADLLSQGRLATASSTENTSTPASAAVDGNTGTRWASTFSDPQWLSVDLGATATISQVVLRWEAAYARAFQIQTSTNGTVWTTVHSTTTGTGGVQTLDVIGNGRYVRMLGTQRGTTYGYSLFEFQVYGSGGGTPPGNGIPDPTATSLETANGPLTTATYAVPSPSGYGSGTVTYPTDSGSYPGVVLMPGYQGTQQNLQWLAPRLASWGFVVINVGTNTLTDDPASRGRQITAAGSQLIALGNAAGNPLSGRVSGALGAVGHSMGGGGVMAALRDDARFRAGVPTAPYYPDTNFSAVTEPTFFLTCQSDPVAHGNDYAVPWYNSMSQAEKLYIEVPGDHLCPMTGSGNKAKQGKWIVSFLSLWLRADTRFSPFLCGPVRDPDKNNPSLVTRWMDTCSF
B2: unnamed (protein)
chain: MRAGFMGVGAAALVALAGCSSTPSNEGTSKPSVTAPTGGSTVIGAAGVGATAGRPASAGTGASPAVTPPSTTVPSGTTKPPAAAGSSAMGAAGAAVSGMAGSSASAGTGAIAGSSAAAGSSAAAGSGAAAGSGAAPGGGFIREAAPTEDSLKKNGEYSVKSYTEKDGLVGGMEYGDAALGGDGSELYYPEGATAPFAAMAIVPGFTAQRSDVAPWGPFLASHGIVALVIDTNSTGDQPDVRSRALLDALESIKKENMRDGSPVKGKIDTSRLGVMGWSMGGGGTWITADGHPELKVAVSLCGWIIQSIGSKTTVPSLQLAVQDDQLAAGMSQPVYMAIPDKTPKMLVEWSSGGHWINNSPENVDHQVGRYGLPWIKVYLENDERYRQFFKTKPTGASDFQTNQ
B3: unnamed (protein)
chain: MASQTNPYARGPNPTAASLEASAGPFTVRSFTVSRPSGYGAGTVYYPTNAGGTVGAIAIVPAYAARQSSIKWWGPRLASHGFVVITIDTNSTLDQPSSRSSQQMAALRQVASLNGTSSSPIYGKVDTARMGVMGWSMGGGGSLISAANNPSLKAAAPQAPWDSSTNFSSVTVPTLIFACENDSIAPVNSSALPIYDSMSRNAKQFLEINGGSHSCANSGNSNQALIGKKGVAWMKRFMDNDTRYSTFACENPNSTRVSDFRTANCSLEHHHHHH
B4: unnamed (protein)
chain: MSCRQEPLGDKMRFFSQKCLATVAAVVATLASGAALAQTSNPYQRGPNPTTSSLEASRGSFAISQFRVSRPSGFGGGTVYYPTNAGGTVGAIAVVPGFLARQSTINWWGPRLASHGFVVITIDTNSTSDQPASRATQLMAALRQVVTLNGTRSSPIYNKVDTSRLAVMGWSMGGGGTLIAARDNPTLKAAVPFAPYNTGTNFSASAVPTLIIGCESDTVAPVGQHAEAFYTSMTRPEKAYLEINGGSHTCATSGNRNQAMIGKYGVSWMKRFVDNDTRFSDFLCGAPHAADLRNTSVISEYRETCPY
B5: unnamed (protein)
chain: MLALRTSFPRVLTRLLAASLATGLVAQAQAAGHERGPAPTAASLEAEAGPFQVASTVLGAPVGYKGGTVFYPKGPGPFALVAFAPGFIETQSWNAWWAKYLASHGFVVVNIDTKSTLAFPPARQREQLAALKDVIQRSHTRGTPFYGLVDATRLGAMGHSMGGGATLELARDTPHIKAIVPMAPFQTTGTDYSRLTVPTLILTCKGDIVASAKSHAAPIYDSLPSSLDKAHVELAGGGGHPCTTSLGTSAEVKKVAAKYGVSWLKRFLDEDTRYSPFLCGAEHEASLKTSVVSAYQGNCPH
B6: unnamed (protein)
chain: MKVNKAHSIAVGLLSLVAVAHTHAQTNPYAKGPDPTSAALEADGPFVVSTQNISGAGFGGATVYSPDTAGTYAVVAFCPGFTATRSSVASFGRRLATHGFVVATIDTNSTLDLPPSRGTQLLAALKTVSALSTGPAAGKIDASRKVVSGWSMGGGGTLYASASDETLKTAVGLAPYSAQKKKFSTSVPQLILGGEDDIVAPVSSHSLSFFNQLPNATPKLYAEIADADHYFPTDAESSQPASKLQIAWVKRFADNDTRYEQFLSTAGIQVDLTNGRLSDSRRESTTF
B7: unnamed (protein)
chain: MKTSNSRQRRWAVGLGLLLLAAAAHAQTNPYQKGPDPTSASLNATAGPFAVATTSVSSSASGFGGGTIYYPTTAGSYAAIAISPGFTATQSSIAWLGRRLASHGFVVITINTNSTLDQPPSRATQLMAALRYLTNSSSSTVRSRVDANRLGVAGHSMGGGGTLIAARDNPTLKAAVPLTPWSTTKSFSTVRVPTLIVGAENDTVAPVSSHSIPFYNSLPSSLDKAYAELNGASHFAPNSTNTPIGRYSVAWVKRFMDNDTRYSPFLCGAPHTAYATSTVFSDYRSTCPY
B8: unnamed (protein)
chain: MLRFRVAASLPAEYLAVDNVVLEGTAQPPAPGGSGYQKGPEPTAALLEAGTGPFATASVTLSRSAASGFGGGTIHYPQGVAGPFAAVAVVPGYLAAESTIAWWGPRLASHGFVVITMATNNTLDLPASRSAQLTAALNQLKTLSATPGHAVFGLVDPNRLGVVGWSYGGGGTLLNAQANPQLKAAMALAPKTLLQGDFTGTTVPTLVVGCQADTTAAPAFWAIPFYNKVSASTGKAYLEVRGGSHFCVTSSTSDADKKALGKYGVAWLKRFMDEDTRYAPFLCGAPRQADVAGNAAISDYRDNCPY
B9: unnamed (protein)
chain: MKKLALKKLAACTFSLLFSLSAYSGGGDDGSNSGELPPPSTCSINCGFEIGPDPSLSFVRASQGPLPVSTSIVSSSVDGFGGGTIYYPSTITDEMATIAISPGFTASQSAIAWWGPLLASHGFVVITIDTNGTFDQPTSRGRQLDSALNYLISEGNRANSPVAGLIDENRLATMGHSMGGGGALQSAARNRLSASVPLAPFNTGSNDFNQINVPTMIMGCEDDGVAPVNSHAIPFYQDIPGTTDKALLEIANGPHNCANGGSSNNPTLSTYGVSWMKRFLDKDRRYDQFLCGPDHIADSRISDFRDTCTF
B10: unnamed (protein)
chain: MKFRLAKLAVLSCALASASAFAQYQKGPDPTTSSLERAGSFATRTISVSSLAASGFGGGRIYYPTASGSYGVIAVSPGYTGTASTMYFWGERLSSHGFVVIVIETNTLLDQPGSRANQLMAALNYTVSQGNSRTSALYGKVDGNRRGVAGHSMGGGGTLIAAADNASLKAAVPMAPWNLSSLSFRGIRVPTMIFGCQSDAIAPVNTHAVPFYNAIPSSTKKGYVEMRLDDHFCVMNGGGHYETLGKLGISWFKRFIDEDTRYSKFLCGTEYNATVRSTEVSDSKNNCPY
B11: unnamed (protein)
chain: MKTSNTRTARTIPGDTMSLGLTRLAKAAVLAAALLMSAAAQAQSNPYQKGPDPTAASLEATAGSFAVSTTSVSSLSASGFGGGTIYYPTAAGSYGAIAVSPGFTATQSSIAWLGPRLASHGFVVITIDTNSTLDQPDSRATQLMAALNYVVSLSQTSSSPIYGKVDANRLGVAGHSMGGGGTLIAARDNPTLKAAVPLAPWNTTKNFSSVTVPTLIIGCENDTVAPVSSHAIPFYNSIPSSTDKAYMELNGADHFCPQSSSNNPIIGKYMVAWMKRFVDNDTRYSPFLCGAPHQADLSSSAVSDYRSNCPY
B12: unnamed (protein)
chain: MGSDDAWIRGEDPTEASIVAMGPYAVGEITEADGLRDGPLYGDASVGDGGATVYYPTDADPPFGGIAVYPGWLYNRDAIAGWGPFLASHGIVMMAVDPQSTGEQPEDRQLGQADALISLKGENTRAGSPLEGKLDTTRLGVMGWSMGGGATWLNADDTASEVYADLVVAISLCGWRPVAVGGNTKAASLQFASVADVLAGGMSQPVYDLIPASTPKMLIEFEGDDHFIANDPSGASWQVGRYGLSWIKVFLERDERYRPFLMTMPMNTTEVRPLM
B13: unnamed (protein)
chain: MNTSILEKMAVGASALLFSFSAFSFTPDPTPDPDPDPGPGPCQSDCDFTRGPNPTSSYLEANSGPYSVSTISVSRSVSGFGGGTIHYPTNTTGTMGAVAIVPGFLAGESSISWWGPRLASHGFVVITIATNSGFDQPDSRETQLGRALDYVISQSNSGSSPISGMVDSTRVGAMGWSMGGGGTLRLASGTRLSAAIPLAPWHSGSNNFNQIDTPTLIIACENDSTAPVGSHASPFYNRIPTSTDKAYLEINNGSHSCANGGGSNGGLLGKYGVSWMKRFIDQDTRYSQFLCGPNHAANSAISEYRETCNY
B14: unnamed (protein)
chain: MKFNLVAQAALFAATLAAGSAAWAVQIGPAPTKSALEASRGPFSTKSFTVSRPNGYGAGTVYYPTNAGAKVGVISIVPGYLSYQNSINWWGPRLASHGFVVVTIDTNSTTDQPASRSTQQLKALDQVVALGNTSSSPLYNKVDGSRTGVMGWSMGGGGSLISGQNRPSIKAAAPQAPWNSSTNFSSLTVPTLIFGCQSDATAAPASHAIPFYNSMSRNPKQYLEKSLGNHFCFNSANATVGLKGVAWMKRFVDGDTRYTSFACNNPNASGFSSFRTERCS
B15: unnamed (protein)
chain: MRLIRRWPMRRLAIGFVLALVLSACDWRGPAPTQQSVVAARGPFAVGTIAVPSSAGFGGGTIYYPSDNAGPFAVISISPGFLGDQSSIAVWGPRLASNGFVAITINTTNGFILPDQRSQEQRQALTYVVNQGNNPSSPISGKVDPDRKGVAGHSMGGGATLISANADPTIRAAMPLAPWNGSASFPNVRVPTLIWACEADNIAPVASHASPMYNSIPSTTRKMYLSVDNGNHFCANSPDNSSQTVGKFGVSFFKKFLDTDTRYDPWVCGASRATAGTVLNEVRSTCPF

Substrate: BHET
Details: 120 h

Protein	plate clearing
B1	not clears the plate
B2	clears the plate (z > 3 vs empty vector)
B3	not clears the plate
B4	not clears the plate
B5	not clears the plate
B6	not clears the plate
B7	not clears the plate
B8	not clears the plate
B9	not clears the plate
B10	not clears the plate
B11	not clears the plate
B12	clears the plate (z > 3 vs empty vector)
B13	not clears the plate
B14	not clears the plate
B15	not clears the plate
